Experimental data published in US20150065381A1.
“And” between values parts separate entries of the source, which are not always exact repeats. Equal entries are not always repeated.

How the values were obtained:
[1] = target: HIV-1 envelope clone G-011.c05 (multiclade gp160 clone panel) (HIV-1); assay: capture ELISA, plate 1, mAb 7.5 ug/ml
[2] = target: HIV-1 envelope clone G-011.c02 (multiclade gp160 clone panel) (HIV-1); assay: capture ELISA, plate 1, mAb 7.5 ug/ml
[3] = target: HIV-1 envelope clone BF-002.c05 (multiclade gp160 clone panel) (HIV-1); assay: capture ELISA, plate 1, mAb 7.5 ug/ml
[4] = target: HIV-1 envelope clone F1-002.c16 (multiclade gp160 clone panel) (HIV-1); assay: capture ELISA, plate 1, mAb 7.5 ug/ml
[5] = target: HIV-1 envelope of gp160 clone B-Chronic-014.c02 (HIV-1); assay: capture ELISA, plate 1, mAb 7.5 ug/ml
[6] = target: HIV-1 JRCSF envelope (HIV-1) (UniProt P20871); assay: capture ELISA, plate 1, mAb 7.5 ug/ml
[7] = target: HIV-1 envelope of gp160 clone AG-010.c14 (HIV-1); assay: capture ELISA, plate 1, mAb 7.5 ug/ml
[8] = target: HIV-1 envelope of gp160 clone B-Acute-009-c08 (HIV-1); assay: capture ELISA, plate 1, mAb 7.5 ug/ml
[9] = target: HIV-1 envelope of gp160 clone AG-010.c11 (HIV-1); assay: capture ELISA, plate 1, mAb 7.5 ug/ml
[10] = target: HIV-1 envelope clone BF-002.c08 (multiclade gp160 clone panel) (HIV-1); assay: capture ELISA, plate 1, mAb 7.5 ug/ml
[11] = target: HIV-1 envelope clone F1-002.c11 (multiclade gp160 clone panel) (HIV-1); assay: capture ELISA, plate 1, mAb 7.5 ug/ml
[12] = target: HIV-1 envelope of gp160 clone B-Acute-008.c11 (HIV-1); assay: capture ELISA, plate 1, mAb 7.5 ug/ml
[13] = target: HIV-1 16055 envelope (HIV-1); assay: capture ELISA, plate 1, mAb 7.5 ug/ml
[14] = target: HIV-1 envelope of gp160 clone B-Acute-010.c08 (HIV-1); assay: capture ELISA, plate 1, mAb 7.5 ug/ml
[15] = target: HIV-1 JRFL envelope (HIV-1); assay: capture ELISA, plate 1, mAb 7.5 ug/ml
[16] = target: HIV-1 envelope of gp160 clone B-Acute-010.c09 (HIV-1); assay: capture ELISA, plate 1, mAb 7.5 ug/ml
[17] = target: HIV-1 envelope clone G-011.c05 (multiclade gp160 clone panel) (HIV-1); assay: capture ELISA, plate 2, mAb 2.5 ug/ml
[18] = target: HIV-1 envelope clone BF-002.c05 (multiclade gp160 clone panel) (HIV-1); assay: capture ELISA, plate 2, mAb 2.5 ug/ml
[19] = target: HIV-1 envelope clone F1-002.c16 (multiclade gp160 clone panel) (HIV-1); assay: capture ELISA, plate 2, mAb 2.5 ug/ml
[20] = target: HIV-1 envelope of gp160 clone B-Chronic-014.c02 (HIV-1); assay: capture ELISA, plate 2, mAb 2.5 ug/ml
[21] = target: HIV-1 envelope of gp160 clone AG-010.c14 (HIV-1); assay: capture ELISA, plate 2, mAb 2.5 ug/ml
[22] = target: HIV-1 envelope of gp160 clone B-Acute-009-c08 (HIV-1); assay: capture ELISA, plate 2, mAb 2.5 ug/ml
[23] = target: HIV-1 envelope of gp160 clone AG-010.c11 (HIV-1); assay: capture ELISA, plate 2, mAb 2.5 ug/ml
[24] = target: HIV-1 envelope clone BF-002.c08 (multiclade gp160 clone panel) (HIV-1); assay: capture ELISA, plate 2, mAb 2.5 ug/ml
[25] = target: HIV-1 envelope clone F1-002.c11 (multiclade gp160 clone panel) (HIV-1); assay: capture ELISA, plate 2, mAb 2.5 ug/ml
[26] = target: HIV-1 16055 envelope (HIV-1); assay: capture ELISA, plate 2, mAb 2.5 ug/ml
[27] = target: HIV-1 envelope of gp160 clone B-Acute-010.c08 (HIV-1); assay: capture ELISA, plate 2, mAb 2.5 ug/ml
[28] = target: HIV-1 JRFL envelope (HIV-1); assay: capture ELISA, plate 2, mAb 2.5 ug/ml
[29] = target: HIV-1 envelope of gp160 clone B-Acute-010.c09 (HIV-1); assay: capture ELISA, plate 2, mAb 2.5 ug/ml
[30] = target: HIV-1 envelope clone G-011.c05 (multiclade gp160 clone panel) (HIV-1); assay: cell-based or functional assay
[31] = target: HIV-1 envelope clone G-011.c02 (multiclade gp160 clone panel) (HIV-1); assay: cell-based or functional assay
[32] = target: HIV-1 envelope of gp160 clone B-Chronic-014.c02 (HIV-1); assay: cell-based or functional assay
[33] = target: HIV-1 JRCSF envelope (HIV-1) (UniProt P20871); assay: cell-based or functional assay
[34] = target: HIV-1 envelope of gp160 clone AG-010.c14 (HIV-1); assay: cell-based or functional assay
[35] = target: HIV-1 envelope of gp160 clone B-Acute-009-c08 (HIV-1); assay: cell-based or functional assay
[36] = target: HIV-1 envelope of gp160 clone AG-010.c11 (HIV-1); assay: cell-based or functional assay
[37] = target: HIV-1 envelope of gp160 clone B-Acute-008.c11 (HIV-1); assay: cell-based or functional assay
[38] = target: HIV-1 envelope of gp160 clone B-Acute-010.c08 (HIV-1); assay: cell-based or functional assay
[39] = target: HIV-1 envelope of gp160 clone B-Acute-010.c09 (HIV-1); assay: cell-based or functional assay

Row | Substance | ELISA OD [1] [OD] | ELISA OD [2] [OD] | ELISA OD [5] [OD] | ELISA OD [6] | ELISA OD [7] [OD] | ELISA OD [8] [OD] | ELISA OD [9] [OD] | ELISA OD [12] [OD] | ELISA OD [13] | ELISA OD [14] [OD] | ELISA OD [15] | ELISA OD [16] [OD] | ELISA OD [17] [OD] | ELISA OD [18] [OD] | ELISA OD [20] [OD] | ELISA OD [21] [OD] | ELISA OD [22] [OD] | ELISA OD [23] [OD] | ELISA OD [27] [OD] | ELISA OD [29] [OD] | other results
1 | PGT151 (antibody) | 0.089 | 0.121 | 0.525 | 0.073 OD and 0.086 OD | 0.148 | 0.11 | 0.081 | 0.256 | 0.08 OD and 0.078 OD | 0.206 | 0.088 OD and 0.08 OD | 0.081 | 0.086 | 0.174 | 0.203 | 0.149 | 0.128 | 0.08 | 0.148 | 0.095 | ELISA OD [3]: 0.286 OD; ELISA OD [4]: 0.105 OD; ELISA OD [10]: 0.087 OD; ELISA OD [11]: 0.087 OD; ELISA OD [19]: 0.114 OD; ELISA OD [24]: 0.067 OD; ELISA OD [25]: 0.115 OD; ELISA OD [26]: 0.082 OD and 0.076 OD; ELISA OD [28]: 0.098 OD and 0.072 OD
2 | PG9 (antibody) | 0.37 | 0.108 | 2.35 | 0.411 OD and 0.454 OD | 1.22 | 0.115 | 0.891 | 0.363 | 0.519 OD and 0.367 OD | 0.547 | 0.072 OD and 0.11 OD | 0.199 | 0.161 | – | 0.986 | 0.834 | 0.07 | 0.597 | 0.278 | 0.106 | PG9 IC50 [30]: 0.098 µg/mL; PG9 IC50 [31]: > 50 µg/mL; PG9 IC50 [32]: 0.039 µg/mL; PG9 IC50 [33]: 0.002 µg/mL; PG9 IC50 [34]: 0.035 µg/mL; PG9 IC50 [35]: 0.288 µg/mL; PG9 IC50 [36]: 0.104 µg/mL; PG9 IC50 [37]: 0.396 µg/mL; PG9 IC50 [38]: 0.147 µg/mL; PG9 IC50 [39]: 22.2 µg/mL; ELISA OD [26]: 0.225 OD and 0.219 OD; ELISA OD [28]: 0.058 OD and 0.051 OD
3 | PGT145 (antibody) | 0.133 | 0.129 | 0.106 | 0.071 OD and 0.084 OD | 0.07 | 0.109 | 0.082 | 0.146 | 0.085 OD and 0.077 OD | 0.179 | 0.076 OD and 0.075 OD | 0.084 | 0.119 | 0.297 | 0.066 | 0.076 | 0.11 | 0.08 | 0.316 | 0.074 | PGT145 IC50 [30]: 0.115 µg/mL; PGT145 IC50 [31]: 1.8 µg/mL; PGT145 IC50 [32]: 2.22 µg/mL; PGT145 IC50 [33]: 0.003 µg/mL; PGT145 IC50 [34]: > 50 µg/mL; PGT145 IC50 [35]: 0.007 µg/mL; PGT145 IC50 [36]: 8.27 µg/mL; PGT145 IC50 [37]: 8.2 µg/mL; PGT145 IC50 [38]: 0.032 µg/mL; PGT145 IC50 [39]: 0.294 µg/mL; ELISA OD [19]: 0.456 OD; ELISA OD [24]: 0.073 OD; ELISA OD [25]: 0.072 OD; ELISA OD [26]: 0.079 OD and 0.067 OD; ELISA OD [28]: 0.075 OD and 0.058 OD
4 | PG16 (antibody) | 0.158 | 0.069 | 0.476 | 0.248 OD and 0.287 OD | 0.817 | 0.083 | 0.332 | 0.205 | 0.215 OD and 0.16 OD | 0.272 | 0.173 OD and 0.159 OD | 0.282 | 0.126 | 0.927 | 0.374 | 0.686 | 0.07 | 0.272 | 0.171 | 0.155 | PG16 [30]: 0.024 µg/mL; PG16 [31]: > 50 µg/mL; PG16 [32]: 0.037 µg/mL; PG16 [33]: 0 µg/mL; PG16 [34]: 0.007 µg/mL; PG16 [35]: 0.202 µg/mL; PG16 [36]: 0.031 µg/mL; PG16 [37]: 5.3 µg/mL; PG16 [38]: 0.015 µg/mL; PG16 [39]: 1.21 µg/mL; ELISA OD [3]: 0.971 OD; ELISA OD [4]: 0.244 OD; ELISA OD [10]: 0.168 OD; ELISA OD [11]: 0.168 OD; ELISA OD [19]: 0.349 OD; ELISA OD [24]: 0.108 OD; ELISA OD [25]: 0.121 OD
5 | PGV04 (antibody) | 0.451 | 0.865 | 4 | 2.15 OD and 2.33 OD | 0.293 | 0.237 | 0.184 | 0.07 | – | 2.65 | – | 2.87 | 0.288 | 4 | 4 | 0.283 | 0.155 | 0.151 | 1.57 | 2.1 | ELISA OD [3]: 4 OD; ELISA OD [4]: 0.54 OD; ELISA OD [10]: 2.72 OD; ELISA OD [11]: 0.28 OD; ELISA OD [19]: 0.303 OD; ELISA OD [24]: 2.79 OD; ELISA OD [25]: 0.156 OD
